Data taken from PMC9945446.

Target: DNMT1 (human) (UniProt P26358)
Test: EMSA
Conditions: 50 mM Tris-HCl pH 7.5, 100 mM KCl (or LiCl), 2.5 mM MgCl2, 0.1 mM ZnCl2, 2 mM BME, 0.05% NP40, 5% glycerol, 0.1 mg/mL BSA, 0.1 mg/mL yeast tRNA, 30 C 1 h

DNMT1 (human), sequence (P26358 whole entry): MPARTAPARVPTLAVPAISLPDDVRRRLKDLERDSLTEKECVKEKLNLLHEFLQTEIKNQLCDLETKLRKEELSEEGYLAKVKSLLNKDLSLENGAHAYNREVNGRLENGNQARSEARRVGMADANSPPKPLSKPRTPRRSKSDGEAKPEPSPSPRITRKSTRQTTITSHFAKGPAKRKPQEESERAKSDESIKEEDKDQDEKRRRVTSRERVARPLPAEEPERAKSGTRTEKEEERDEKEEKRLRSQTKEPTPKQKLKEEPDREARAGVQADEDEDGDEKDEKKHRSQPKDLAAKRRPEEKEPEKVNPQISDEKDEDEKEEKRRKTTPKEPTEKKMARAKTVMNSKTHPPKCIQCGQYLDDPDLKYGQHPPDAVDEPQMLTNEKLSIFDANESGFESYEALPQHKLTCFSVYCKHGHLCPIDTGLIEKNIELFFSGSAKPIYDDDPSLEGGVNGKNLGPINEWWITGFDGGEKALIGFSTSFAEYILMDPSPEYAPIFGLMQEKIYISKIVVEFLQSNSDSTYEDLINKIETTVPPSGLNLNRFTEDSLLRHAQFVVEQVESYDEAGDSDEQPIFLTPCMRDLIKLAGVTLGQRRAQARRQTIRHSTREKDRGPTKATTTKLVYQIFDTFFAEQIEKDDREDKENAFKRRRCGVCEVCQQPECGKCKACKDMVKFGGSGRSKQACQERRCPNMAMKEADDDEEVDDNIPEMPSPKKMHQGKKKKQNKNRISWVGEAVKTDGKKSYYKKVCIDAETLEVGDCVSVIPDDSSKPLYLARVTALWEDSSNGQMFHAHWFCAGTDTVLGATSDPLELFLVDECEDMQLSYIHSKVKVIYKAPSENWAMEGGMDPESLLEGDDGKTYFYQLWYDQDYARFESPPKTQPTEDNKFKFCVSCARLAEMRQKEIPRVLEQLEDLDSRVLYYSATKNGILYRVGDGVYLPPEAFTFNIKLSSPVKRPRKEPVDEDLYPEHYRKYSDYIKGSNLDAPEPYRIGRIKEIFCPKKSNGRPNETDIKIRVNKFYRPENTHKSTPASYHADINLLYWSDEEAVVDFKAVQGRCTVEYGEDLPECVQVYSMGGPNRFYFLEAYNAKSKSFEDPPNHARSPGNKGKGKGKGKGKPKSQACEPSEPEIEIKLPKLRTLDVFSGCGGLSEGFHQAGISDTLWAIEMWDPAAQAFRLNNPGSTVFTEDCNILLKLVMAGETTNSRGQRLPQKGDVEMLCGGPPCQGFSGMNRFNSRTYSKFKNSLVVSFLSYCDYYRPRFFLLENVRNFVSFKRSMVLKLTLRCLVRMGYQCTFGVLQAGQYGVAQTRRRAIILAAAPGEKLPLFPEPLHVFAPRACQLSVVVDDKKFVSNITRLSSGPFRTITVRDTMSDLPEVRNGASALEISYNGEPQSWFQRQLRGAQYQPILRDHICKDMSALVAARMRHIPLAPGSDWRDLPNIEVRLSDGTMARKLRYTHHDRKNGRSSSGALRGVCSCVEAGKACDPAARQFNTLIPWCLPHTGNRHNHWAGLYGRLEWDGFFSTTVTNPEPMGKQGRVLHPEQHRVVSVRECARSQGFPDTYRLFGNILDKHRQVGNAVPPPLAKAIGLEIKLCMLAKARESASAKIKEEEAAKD

## UUCCACCCUCCCACCACCCCUACUUCCAGCACCAGGAAUCCCCAACACACACCAACAUCACAUUUUUAACACAUCAAUCUACCCACUCACACACACAACACACAACACUUACGGCCUCAGCCAACACAAAGCCAUCACACAAGACUCGCUUAUCAACUAACAAUUUAACGAUCAAAUCACACAACACUUUACGCAUUCCAGAUUUUAAAAACUUUUUAUUACACAUUAUAUCAAAUCUACCACCAUACAAGCAGAAAUUAAGACUUUACAUAACUUUUAUACAUUACAAUAUUUCUUCAAAUAAAUCUCUCCUAUAAACCA [DNMT1 3'UTR GU mutant (all GU/UG to AC/CA)]
  binding signal (fold weaker than WT 3'UTR): 2

## UUCUGCCCUCCCGUCACCCCUGUUUCUGGCACCAGGAAUCCCCAACAUGCACUGACACCACACUUUUAACAUGUCAAUCUGUCCGUUCACACACACAACACACAACACCCACAGCCUUGGCUGACAUGAAGCCACCACACAAGGUUCGCUUAUCAACUAAUGAUUUAGUGAUCAAAUUGUGCAGUACUUUGUGCAUUCUGGAUUUUAAAAGUUUUUUAUUAUGCAUUAUAUCAAAUCUACCACUGUAUGAGUGGAAAUUAAGACUUUAUGUAGUUUUUAUAUGUUGUAAUAUUUCUUCAAAUAAAUCUCUCCUAUAAACCA
  binding signal (fold weaker than WT 3'UTR): 3

## UUCUGCCCUCCCGUCACCCCUGUUUCUGGCACCAGGAAUCCCCAACAUGCACUGAUGUUGUGUUUUUAACAUGUCAAUCUGUCCGUUCACAUGUGUGGUACAUGGUGUUUGUGGCCUUGGCUGACAUGAAGCUGUUGUGUGAGGUUCGCUUAUCAACUAAUGAUUUAGUGAUCAAAUUGUGCAGUACUUUGUGCAUUCUGGAUUUUAAAAGUUUUUUAUUAUGCAUUAUAUCAAAUCUACCACUGUAUGAGUGGAAAUUAAGACUUUAUGUAGUUUUUAUAUGUUGUAAUAUUUCUUCAAAUAAAUCUCUCCUAUAAACCA [DNMT1 3'UTR WT]
  Kd: 0.069 µM
